Experimental data taken from patent US6030777.

Tests used:
[1] = target: E. coli core RNA polymerase (E. coli) (UniProt P0A7Z4)
[2] = target: Salmonella typhimurium sigma^70, purified (Salmonella typhimurium) (UniProt P0A2E3)
[3] = target: E. coli sigma^70 (E. coli) (UniProt P00579)

| Substance | RNA polymerase activity, [^3 H]UTP (nmol) ([^3 H]UTP (nmol)) [1] | RNA polymerase activity, [^3 H]UTP (nmol), after adding S. typhimurium sigma^70 to E. coli RNA polymerase inhibited by AsiA ([^3 H]UTP (nmol)) [2] | RNA polymerase activity, [^3 H]UTP (nmol), with sigma^70 preincubated with AsiA ([^3 H]UTP (nmol)) [2] | E. coli RNA polymerase assay (sigma^70 dependent transcription on T4 phage DNA) [3] [% inhibited] |
| --- | --- | --- | --- | --- |
| Salmonella typhimurium sigma^70, purified (from UniProt P0A2E3) | 2.3 |  |  |  |
| AsiA protein (10 kDa anti-sigma^70 factor of bacteriophage T4), purified |  | 3 | 0.98 | > 80 |
